Measurements published in patent publication US20130101549A1 (Biogen, published 2013).

Experiments:
[1] = molecular target: T1, IGFR-Ig (UniProt P08069 31-932); assay: ELISA on IGFR-Ig, dilutions of medium of transfected CHO cells; the linker version of the control fusion is not named on the sheet
T1 construct: not shown: Ig part not specified

[2] = molecular target: T2, murine HVEM-Ig (mouse, UniProt Q80WM9 39-210); assay: ELISA, muHVEM-Ig coated at 2 ug/ml, HRP goat anti-human kappa; the number is C of the printed 4-P fit (A 0.036, B 0.816, D 1.534, R^2 0.997); Fab-Light is BIIB71F10-132 by paragraph 503
T2 construct: Expressed and purified in house
T2 sequence (looked up): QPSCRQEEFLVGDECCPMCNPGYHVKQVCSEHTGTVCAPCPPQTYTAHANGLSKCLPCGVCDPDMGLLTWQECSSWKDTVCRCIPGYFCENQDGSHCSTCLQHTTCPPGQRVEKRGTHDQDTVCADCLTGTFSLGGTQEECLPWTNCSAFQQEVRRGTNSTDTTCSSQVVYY
Procedure: (§1) Human and murine ErbB2-Fc were obtained from R&D Systems. Wells of 96-well plates were coated with 2 ug/ml or 0.2 ug/ml of human or murine HER2-Fc by incubation overnight at 4-8° C. with either of these six proteins (80 ul/well of a 0.2 or 2 ug/ml solution in PBS). Wells were emptied, filled completely with a solution of PBS with 1% BSA (blocking buffer) and incubated at room temperature for 1 hour. Wells were emptied, washed twice PBS containing 0.05% Tween 20 (PBST) and filled with the samples (80 ul/well of 3× dilution series of the standard and supernatants in blocking buffer) prepared in another 96-well plate. After a 2-hour incubation at room temperature, the wells were emptied, washed three times with PBST and filled with a solution of HRP-conjugated goat pAbs anti-human kappa chain (80 ul/well of a 2000-fold dilution in blocking buffer). After 1-hour incubation, the wells were emptied and filled with a solution of HRP substrate prepared freshly. The color was left to develop for 3 minutes and was stopped by addition of an equal volume of 1N H₂SO₄. Absorbance was measured at 450 nm using a Plate Reader (SpectraMax, Molecular Devices). The data was processed and graphs were created using SoftMax Pro software.
(§2) Human and murine HVEM-Ig were expressed and purified in house.

[3] = molecular target: T3, human HVEM-Ig (human, UniProt Q92956 39-202); assay: ELISA, huHVEM-Ig coated at 2 ug/ml, HRP goat anti-human kappa; the number is C of the printed 4-P fit (A 0.064, B 0.959, D 1.517, R^2 0.999); Fab-Light is BIIB71F10-132 by paragraph 503
T3 construct: Expressed and purified in house; also called HVEM-Fc; Herpes virus entry mediator-Ig
T3 sequence (looked up): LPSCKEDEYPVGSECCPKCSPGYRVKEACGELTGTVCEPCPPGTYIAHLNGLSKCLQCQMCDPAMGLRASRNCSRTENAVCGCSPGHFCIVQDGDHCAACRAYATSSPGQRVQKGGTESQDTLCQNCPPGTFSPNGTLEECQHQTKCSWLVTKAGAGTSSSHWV
Procedure: as §1, §2

[4] = molecular target: T4, human HER2-Fc (human, UniProt P04626 23-652); assay: ELISA on coated HER2-Fc
T4 construct: Bought from R&D Systems: homodimeric fusion of the HER2 extracellular domain and human IgG1 Fc; also called human ErbB2-Fc; rhErbB2-Fc; not shown: Fc fragment of human IgG1
Procedure: as §1

[5] = molecular target: T3, human HVEM-Ig; assay: FACS (HVEM column of Table 2; format not told there)
[6] = molecular target: T5, murine LTβR-Ig (mouse, UniProt P50284 31-223); assay: ELISA, muLTBR-Ig coated at 2 ug/ml, HRP goat anti-human kappa; the number is C of the printed 4-P fit (A 0.093, B 0.898, D 1.613, R^2 0.995); Fab-Light is BIIB71F10-132 by paragraph 502
T5 construct: Expressed and purified in house; also called mLTbR; murine LTBR-Ig
Procedure: as §1
(§3) Human and murine LTBR-Ig were expressed and purified in house.

[7] = molecular target: T5, murine LTβR-Ig; assay: ELISA, muLTBR-Ig coated at 0.2 ug/ml, HRP goat anti-human kappa; the number is C of the printed 4-P fit (A 0.064, B 0.872, D 1.453, R^2 0.999); Fab-Light is BIIB71F10-132 by paragraph 502
Procedure: as §1, §3

[8] = molecular target: T6, human HER2/ErbB2 on cells (human, UniProt P04626 23-1255); assay: FACS on HER2-expressing cells
T6 construct: whole, on cells; also called hHER2/ErbB2; wild type HER2/ErbB

[9] = molecular target: T7, human LTβR-Ig (human, UniProt P36941 31-227); assay: ELISA, huLTBR-Ig coated at 2 ug/ml, HRP goat anti-human kappa; the number is C of the printed 4-P fit (A 0.025, B 0.807, D 1.574, R^2 0.998); Fab-Light is BIIB71F10-132 by paragraph 502
T7 construct: Expressed and purified in house; also called hLTbR-Ig; human LTBR-Ig
Procedure: as §1, §3

T5 sequence (P50284 31-223): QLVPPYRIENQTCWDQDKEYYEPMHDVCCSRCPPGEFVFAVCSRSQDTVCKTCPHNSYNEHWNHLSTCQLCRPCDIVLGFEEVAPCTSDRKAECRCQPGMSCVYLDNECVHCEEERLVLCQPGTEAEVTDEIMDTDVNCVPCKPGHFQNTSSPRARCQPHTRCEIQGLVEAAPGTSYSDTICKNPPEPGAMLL
T7 sequence (P36941 31-227): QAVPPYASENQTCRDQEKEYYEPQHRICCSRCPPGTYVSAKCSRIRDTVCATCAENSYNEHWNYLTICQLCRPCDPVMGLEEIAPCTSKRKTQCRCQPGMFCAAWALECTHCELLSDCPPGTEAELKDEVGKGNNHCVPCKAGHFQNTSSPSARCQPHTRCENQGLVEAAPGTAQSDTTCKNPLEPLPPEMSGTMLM

B1: 71F10 Fab-hLIGHT fusion with the (G4S)4 linker (BIIB71F10-132) (other)
heavy: EVQLLESGGGLVQPGGSLRLSCAASGFTFSSYGMVWVRQAPGKGLEWVSSISSSGGLTWYADSVKGRFTISRDNSKNTLYLQMNSLRAEDTAVYYCASPPGIAVARDYWGQGTLVTVSSASTKGPSVFPLAPSSKSTSGGTAALGCLVKDYFPEPVTVSWNSGALTSGVHTFPAVLQSSGLYSLSSVVTVPSSSLGTQTYICNVNHKPSNTKVDKKVEPKSCDKGGGGSGGGGSGGGGSGGGGSNPAAHLTGANSSLTGSGGPLLWETQLGLAFLRGLSYHDGALVVTKAGYYYIYSKVQLGGVGCPLGLASTITHGLYKRTPRYPEELELLVSQQSPCGRATSSSRVWWDSSFLGGVVHLEAGEEVVVRVLDERLVRLRDGTRSYFGAFMV
light: DIQMTQSPSSLSASVGDRVTITCRASQGISNYLAWYQQKPGKVPKLLIYAASTLQSGVPSRFSGSGSGTDFTLTISSLQPEDVATYYCQKYNSALLTFGGGTKVEIKRTVAAPSVFIFPPSDEQLKSGTASVVCLLNNFYPREAKVQWKVDNALQSGNSQESVTEQDSKDSTYSLSSTLTLSKADYEKHKVYACEVTHQGLSSPVTKSFNRGEC
notes: Trimer of Fab-LIGHT units; also called 71F10 Fab-(G4S)4-LIGHT
- binding result [1]: no binding (tested: dilution 1.00 (undiluted medium))
- EC50 [2]: 2.5 ng/mL
- EC50 [3]: 2.45 ng/mL
- EC50 [4]: 50 pM
- EC50 [5]: 500 pM
- EC50 [6]: 3.57 ng/mL
- EC50 [7]: 58.8 ng/mL
- EC50 [8]: 500 pM
- EC50 [9]: 2.69 ng/mL
